According to PMC12814185, “Receptor-Mediated Shuttling of a D‑Amino Acid Peptide Achieves High Nanomolar Cytosolic Concentrations” (Journal of the American Chemical Society, 2025):

Experiments:
[1] = molecular target: recombinant human GST-MDM2 (human), Q00987; assay: fluorescence polarisation
[2] = molecular target: T1, chemokine-like receptor 1 (CMKLR1), Q99788
T1 chain: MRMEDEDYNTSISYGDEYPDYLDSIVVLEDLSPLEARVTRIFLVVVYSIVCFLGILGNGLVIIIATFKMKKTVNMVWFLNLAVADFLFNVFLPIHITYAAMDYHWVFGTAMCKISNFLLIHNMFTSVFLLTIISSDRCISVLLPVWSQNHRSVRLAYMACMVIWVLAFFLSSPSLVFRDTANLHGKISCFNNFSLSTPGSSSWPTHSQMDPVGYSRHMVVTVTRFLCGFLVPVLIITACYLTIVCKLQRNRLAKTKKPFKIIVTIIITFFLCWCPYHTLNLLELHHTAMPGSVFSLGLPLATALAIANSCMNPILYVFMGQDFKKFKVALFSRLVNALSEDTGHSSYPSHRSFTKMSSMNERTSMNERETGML

Chain of recombinant human GST-MDM2 (human), Q00987 (Q00987 whole entry): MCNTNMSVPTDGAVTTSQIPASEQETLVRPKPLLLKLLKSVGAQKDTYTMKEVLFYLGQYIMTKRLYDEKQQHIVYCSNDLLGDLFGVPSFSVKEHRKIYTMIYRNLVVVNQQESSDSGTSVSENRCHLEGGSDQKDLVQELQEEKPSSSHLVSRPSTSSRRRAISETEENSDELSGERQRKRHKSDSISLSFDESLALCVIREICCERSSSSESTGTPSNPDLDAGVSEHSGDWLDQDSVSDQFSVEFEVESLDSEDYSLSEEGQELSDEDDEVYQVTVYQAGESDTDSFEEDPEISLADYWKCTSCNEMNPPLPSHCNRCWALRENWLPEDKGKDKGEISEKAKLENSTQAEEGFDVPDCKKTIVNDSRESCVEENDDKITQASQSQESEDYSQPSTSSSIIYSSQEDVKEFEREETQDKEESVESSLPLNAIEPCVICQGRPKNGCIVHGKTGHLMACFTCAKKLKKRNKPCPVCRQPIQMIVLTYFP

- Kd [1]: 90 nM
- Ca2+ flux assay, EC50 [2]: 220 nM
B1: Cy5-hsLMWP-PMIγ-cC9 (peptide)
chain: GSVSHHHHHHGGHHHHKDWWPLAFEALLRGEV
modifications: (EG)3 spacer between hsLMWP and D-lysine; D-lysine at 17 carrying Cy5-(EG)3 on its side chain; dwwplafeallr (residues 18-29) are D-amino acids; citrulline at 33; (EG)3 spacer between Cit and Pra; propargylglycine (Pra) at 34, joined to the azidolysine of cC9 by CuAAC; C-terminal amide | N-terminal acetyl; azidolysine at 1 (joined to Pra of the other chain by CuAAC); D-homocysteine at 5 in a …
